*1 amine or outer side, *2 acyl side, *3 side chain or, on linkers, in order; H or OH if unused. Where a SMILES comes first, the peptide text is derived from it. Bridges are numbered along the chain shown (N, C = ends). Roman numbers before positions name the chains, in order. Where no end group is shown, it is not given here. [ ]: non-standard residue; d: D form. CO(CH2CH2O)9CH2CH2CO = O=C(CCOCCOCCOCCOCCOCCOCCOCCOCCOCCC(=O)[*:2])[*:1]; 3Pal = N[C@@H](Cc1cccnc1)C(=O)O
B1: peptide complex, dimer structure No. 51 (peptide sequence No. 15 + linker structure No. 10) (peptide)
peptide: {CH2CO}-FSPY[3Pal]WPTYSE[3Pal]VECG
modifications: thioether N-15; also: homodimer via linker No. 10 (PEG2c-K-cPEG1c-K-PEG2c) at Gly16
B2: peptide complex, dimer structure No. 33 (peptide sequence No. 15 + linker structure No. 4) (peptide)
peptide: {CH2CO}-FSPY[3Pal]WPTYSE[3Pal]VECG
modifications: thioether N-15; also: homodimer via linker No. 4 (PEG8c-K-cPEG1c-K-PEG8c) at Gly16

What follows are molecules tested against TrkB of the cells of the PathHunter eXpress TrkB Functional Assay kit (DiscoverX) (UniProt Q16620 32-822, limits assumed) (assay: cell-based or functional assay). Conditions: not given.
Chain of TrkB of the cells of the PathHunter eXpress TrkB Functional Assay kit (DiscoverX) (Q16620 32-822 limits assumed): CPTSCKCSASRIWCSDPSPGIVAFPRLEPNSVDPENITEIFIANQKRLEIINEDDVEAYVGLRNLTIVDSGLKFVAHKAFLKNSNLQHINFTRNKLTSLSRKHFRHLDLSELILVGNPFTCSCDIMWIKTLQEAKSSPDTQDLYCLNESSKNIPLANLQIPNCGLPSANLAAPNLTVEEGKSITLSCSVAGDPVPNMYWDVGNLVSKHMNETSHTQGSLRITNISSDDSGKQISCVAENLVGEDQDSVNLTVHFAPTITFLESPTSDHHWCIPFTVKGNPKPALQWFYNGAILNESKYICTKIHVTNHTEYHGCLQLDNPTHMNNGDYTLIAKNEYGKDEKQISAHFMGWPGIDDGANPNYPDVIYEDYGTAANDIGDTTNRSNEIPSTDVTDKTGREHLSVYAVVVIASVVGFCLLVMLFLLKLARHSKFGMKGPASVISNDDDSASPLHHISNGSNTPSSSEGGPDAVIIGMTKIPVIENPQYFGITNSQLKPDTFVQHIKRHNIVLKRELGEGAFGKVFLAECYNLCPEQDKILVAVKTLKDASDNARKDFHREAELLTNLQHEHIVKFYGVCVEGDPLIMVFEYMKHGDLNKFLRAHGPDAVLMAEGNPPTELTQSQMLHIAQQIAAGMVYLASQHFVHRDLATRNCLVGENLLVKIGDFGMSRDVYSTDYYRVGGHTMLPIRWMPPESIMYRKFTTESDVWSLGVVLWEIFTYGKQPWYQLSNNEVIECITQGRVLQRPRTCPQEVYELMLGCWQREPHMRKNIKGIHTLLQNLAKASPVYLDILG

Row | Molecule | PathHunter EC50 | PathHunter Emax (BDNF maximum = 100%)
1 | {CH2CO}-FSPY[3Pal]WPTYSE[3Pal]VECG (thioether N-15; also: homodimer via linker No. 8 (K-cPEG17c-K) at Gly16) [peptide complex, dimer structure No. 49 (peptide sequence No. 15 + linker structure No. 8)] | 0.644 nM | 107%
2 | {CH2CO}-FSPY[3Pal]WPTYSE[3Pal]VECG (thioether N-15; also: homodimer via linker No. 6 (K-cPEG9c-K) at Gly16) [peptide complex, dimer structure No. 47 (peptide sequence No. 15 + linker structure No. 6)] | 0.556 nM | 107%
3 | B1 | 0.599 nM | 106%
4 | {CH2CO}-FLPY[3Pal]WPTYSL[3Pal]VWCG (thioether N-15; also: homodimer via linker No. 2 (PEG8c-K-PEG8c) at Gly16) [peptide complex, dimer structure No. 2 (peptide sequence No. 3 + linker structure No. 2)] | – | 89%
5 | {CH2CO}-FSPY[3Pal]WPTYSE[3Pal]VECG (thioether N-15; also: homodimer via linker No. 2 (PEG8c-K-PEG8c) at Gly16) [peptide complex, dimer structure No. 15 (peptide sequence No. 15 + linker structure No. 2)] | 0.29 nM | 104%
6 | {CH2CO}-FLPY[3Pal]WPTYSE[3Pal]VECG (thioether N-15; also: homodimer via linker No. 2 (PEG8c-K-PEG8c) at Gly16) [peptide complex, dimer structure No. 14 (peptide sequence No. 14 + linker structure No. 2)] | 0.197 nM | 86%
7 | {CH2CO}-FLPY[3Pal]WPTYSL[3Pal]VWCG (thioether N-15; also: homodimer via linker No. 3 (PEG12c-K-PEG12c) at Gly16) [peptide complex, dimer structure No. 3 (peptide sequence No. 3 + linker structure No. 3)] | – | 89%
8 | {CH2CO}-FEPY[3Pal]WPTYSE[3Pal]VSCG (thioether N-15; also: homodimer via linker No. 2 (PEG8c-K-PEG8c) at Gly16) [peptide complex, dimer structure No. 18 (peptide sequence No. 18 + linker structure No. 2)] | 0.26 nM | 93%
9 | {CH2CO}-FSPY[3Pal]WPTYSE[3Pal]VECG (thioether N-15; also: homodimer via linker No. 14 (K-OCOPEG13OCO-K) at Gly16) [peptide complex, dimer structure No. 55 (peptide sequence No. 15 + linker structure No. 14)] | 0.581 nM | 104%
10 | B2 | 0.354 nM | 96%
11 | {CH2CO}-FEPY[3Pal]WPTYSE[3Pal]VECG (thioether N-15; also: homodimer via linker No. 14 (K-OCOPEG13OCO-K) at Gly16) [peptide complex, dimer structure No. 57 (peptide sequence No. 17 + linker structure No. 14)] | 0.669 nM | 99%

These molecules were tested against TrkB (Homo sapiens, UniProt Q16620) (assay: PathHunter eXpress TrkB Functional Assay (phosphorylation of TrkB)). Conditions: maximum signal induced by BDNF = 100%; stimulation for 3 hours.
Type: cell-based
Protocol: To evaluate the TrkB activation potency of the TrkB agonist peptide of the present invention, the phosphorylation of TrkB was examined. The PathHunter (registered trademark) eXpress TrkB Functional Assay kit (DiscoverX; cells, 96-well plate, medium, and detection reagents included) was used and the evaluation was performed according to the attached protocols. The frozen cells were thawed and suspended in the medium, then seeded into a 96-well plate at 10,000 cells per well and incubated for 48 hours. Thereafter, Recombinant Human BDNF Protein (R&D Systems) or a peptide was added, and after stimulation for 3 hours, a detection reagent was added. The reaction was performed while protected from the light at room temperature for 60 minutes, and luminescent signals were measured using a SpectraMax Paradigm Multi-Mode Microplate Reader (Molecular Devices). The obtained signals were analyzed with GraphPad Prism, and the activity (%) was calculated with the maximum value of the signals induced by BDNF as 100% and a signal with no stimulation as 0%.
The BDNF was evaluated at 8 points (0.006 nM to 100 nM) from 100 nM using 4-fold dilutions. The peptide was evaluated in the measurement ranges A to C shown below. • Measurement range A=6 points from 100 nM using 5-fold dilutions (0.032 nM to 100 nM) • Measurement range B=8 points from 100 nM using 4-fold dilutions (0.006104 nM to 100 nM) • Measurement range C=4 points from 10 nM using 10-fold dilutions (0.01 nM to 10 nM)

Chain of TrkB (Q16620 32-822): as the sequence (Q16620 32-822 limits assumed) above

Row | Molecule | Emax
12 | CC(C)[C@@H]1NC(=O)[C@H](Cc2cccnc2)NC(=O)[C@H](CCC(=O)O)NC(=O)[C@H](CO)NC(=O)[C@H](Cc2ccc(O)cc2)NC(=O)[C@H]([C@@H](C)O)NC(=O)[C@@H]2CCCN2C(=O)[C@H](Cc2c[nH]c3ccccc23)NC(=O)[C@H](Cc2cccnc2)NC(=O)[C@H](Cc2ccc(O)cc2)NC(=O)[C@@H]2CCCN2C(=O)[C@H](CO)NC(=O)[C@H](Cc2ccccc2)NC(=O)CSC[C@@H](C(=O)NCC(=O)N[C@@H](CCCCNC(=O)CCOCCOCCOCCOCCOCCOCCOCCOCCOCCC(=O)NCCCC[C@H](NC(=O)CNC(=O)[C@@H]2CSCC(=O)N[C@@H](Cc3ccccc3)C(=O)N[C@@H](CO)C(=O)N3CCC[C@H]3C(=O)N[C@@H](Cc3ccc(O)cc3)C(=O)N[C@@H](Cc3cccnc3)C(=O)N[C@@H](Cc3c[nH]c4ccccc34)C(=O)N3CCC[C@H]3C(=O)N[C@@H]([C@@H](C)O)C(=O)N[C@@H](Cc3ccc(O)cc3)C(=O)N[C@@H](CO)C(=O)N[C@@H](CCC(=O)O)C(=O)N[C@@H](Cc3cccnc3)C(=O)N[C@@H](C(C)C)C(=O)N[C@@H](CCC(=O)O)C(=O)N2)C(N)=O)C(N)=O)NC(=O)[C@H](CCC(=O)O)NC1=O [compound 47] (I: {CH2CO}-FSPY[3Pal]WPTYSE[3Pal]VECGK-NH2 / II: {CH2CO}-FSPY[3Pal]WPTYSE[3Pal]VECGK-NH2; linker I:17-II:17 via CO(CH2CH2O)9CH2CH2CO; thioether I:N-I:15, II:N-II:15) | 107%
